According to patent US20140212431A1 (Genentech, published 2014):

Key:
[1] = biological target: T1, recombinant human PCSK9 with a histidine (His)8 C-terminal tag (human, UniProt Q8NBP7 31-692, biotinylated in vitro (EZ-link Sulfo-NHS-biotinylation kit) where the assay names biotinylated PCSK9); test: cell-based or functional assay
[2] = biological target: T1, recombinant human PCSK9 with a …; test: SPR (Biacore 3000), EGF-Fc captured by anti-human Fc, PCSK9 injected, 1 mM CaCl2; SPR, 1 mM Ca^2+
[3] = biological target: T1, recombinant human PCSK9 with a …; test: biolayer interferometry (Octet RED 384), EGF-Fc on Fc biosensor, PCSK9 0-500 nM, 1 mM CaCl2, steady state fit; biolayer interferometry, steady state, 1 mM CaCl2

EC50: concentration that restored LDLR levels on the HepG2 cell surface to 50% of control [1]: 11 µM
Kd [2]: 0.935 µM
Kd [3]: 0.9 µM
B1: EGFwt-Fc fusion protein (Fc fusion)
chain: not shown
notes: A single EGF-Fc protein contains two EGF domains; also called EGF-Fc (WT); EGF(A)-Fc; not shown: Fc domain of human IgG1 (C222-K443)
